According to paper PMC7503845:
One block for each molecule: values may come before it.

Tests used:
[1] = molecular target: full length recombinant human active CK1 epsilon (CK1ε) (human) (UniProt P49674)
[2] = molecular target: full length recombinant human active CK1 epsilon (CK1ε) (human) (UniProt P49674); remark: listed apart in the source
[3] = molecular target: full length recombinant human active CK1 epsilon (CK1ε) (human) (UniProt P49674); remark: listed apart in the source
[4] = molecular target: full length recombinant human active CK1 epsilon (CK1ε) (human) (UniProt P49674); remark: listed apart in the source

Sequence of UniProt P49674 (P49674 whole entry): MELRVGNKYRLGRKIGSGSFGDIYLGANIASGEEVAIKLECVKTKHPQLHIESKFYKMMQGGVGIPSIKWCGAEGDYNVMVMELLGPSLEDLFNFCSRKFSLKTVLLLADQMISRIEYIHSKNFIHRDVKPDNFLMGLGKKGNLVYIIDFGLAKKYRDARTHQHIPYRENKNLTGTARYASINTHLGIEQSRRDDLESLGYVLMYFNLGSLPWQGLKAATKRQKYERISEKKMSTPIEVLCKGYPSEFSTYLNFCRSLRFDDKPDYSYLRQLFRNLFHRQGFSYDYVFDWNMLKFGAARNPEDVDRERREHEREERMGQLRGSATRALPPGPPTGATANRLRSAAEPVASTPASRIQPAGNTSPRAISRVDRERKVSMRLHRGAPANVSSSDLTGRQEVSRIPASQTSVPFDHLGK

- Km^Casein of the kinase reaction at fixed ATP of 7.5, 15, 30 and 60 μM (4.6, 3.9, 4.8 and 4.0 μM) [1]: 4.8 µM
- kcat / Km^Casein of the kinase reaction at fixed ATP of 7.5, 15, 30 and 60 μM (2.5, 4.1, 6.3 and 10.8 min^-1 μM^-1) [1]: 180000 M⁻¹ s⁻¹
Molecule: dephosphorylated native casein mixture (Casein)

- Km of CK1ε for DDX3X in the kinase reaction (33P incorporation; DDX3X 0.06-1 μM, ATP fixed at 30 μM, 25 ng CK1ε, 15 min) [2]: 0.2 µM
- Km^DDX3X of the kinase reaction at fixed ATP of 15, 30, 60 and 120 μM (0.6, 0.5, 0.7 and 0.7 μM) [3]: 0.7 µM
- kcat / Km^DDX3X of the kinase reaction at fixed ATP of 15, 30, 60 and 120 μM (5.5, 8.4, 11.9 and 18.9 min^-1 μM^-1) [3]: 315000 M⁻¹ s⁻¹
Molecule: recombinant human DDX3X wild-type (WT) (from UniProt O00571 1-662) (enzyme)

- Km^Dvl2 of the kinase reaction at fixed ATP of 7.5, 30, 60 and 120 μM (0.5, 1.1, 0.9 and 0.4 μM) [4]: 1.1 µM
- kcat / Km^Dvl2 of the kinase reaction at fixed ATP of 7.5, 30, 60 and 120 μM (76.4, 98.8, 159.3 and 261.7 min^-1 μM^-1) [4]: 4.36e+06 M⁻¹ s⁻¹
B1: full length recombinant human disheveled 2 (Dvl2) (natural protein)
chain: MAGSSTGGGGVGETKVIYHLDEEETPYLVKIPVPAERITLGDFKSVLQRPAGAKYFFKSMDQDFGVVKEEISDDNARLPCFNGRVVSWLVSSDNPQPEMAPPVHEPRAELAPPAPPLPPLPPERTSGIGDSRPPSFHPNVSSSHENLEPETETESVVSLRRERPRRRDSSEHGAGGHRTGGPSRLERHLAGYESSSTLMTSELESTSLGDSDEEDTMSRFSSSTEQSSASRLLKRHRRRRKQRPPRLERTSSFSSVTDSTMSLNIITVTLNMEKYNFLGISIVGQSNERGDGGIYIGSIMKGGAVAADGRIEPGDMLLQVNDMNFENMSNDDAVRVLRDIVHKPGPIVLTVAKCWDPSPQAYFTLPRNEPIQPIDPAAWVSHSAALTGTFPAYPGSSSMSTITSGSSLPDGCEGRGLSVHTDMASVTKAMAAPESGLEVRDRMWLKITIPNAFLGSDVVDWLYHHVEGFPERREARKYASGLLKAGLIRHTVNKITFSEQCYYVFGDLSGGCESYLVNLSLNDNDGSSGASDQDTLAPLPGATPWPLLPTFSYQYPAPHPYSPQPPPYHELSSYTYGGGSASSQHSEGSRSSGSTRSDGGAGRTGRPEERAPESKSGSGSESEPSSRGGSLRRGGEASGTSDGGPPPSRGSTGGAPNLRAHPGLHPYGPPPGMALPYNPMMVVMMPPPPPPVPPAVQPPGAPPVRDLGSVPPELTASRQSFHMAMGNPSEFFVDVM
